Patent US20210040184A1 (ATRECA, published 2021)
Residue numbers refer to the chain shown, from its start.

Experiments:
Assay in all cases: cell-based or functional assay
[1] = target: T1, HIV-1 X1632_S2_B10 envelope (Env) on Env.IMC.LucR virus (HIV-1 clade G)
[2] = target: T2, HIV-1 CAP45.2.00.G3 envelope (Env) on Env.IMC.LucR virus (HIV-1 clade C)
[3] = target: T3, HIV-1 DU172.17 envelope (Env) on Env.IMC.LucR virus (HIV-1 clade C)
[4] = target: T4, HIV-1 REJO4541.67 envelope (Env) on Env.IMC.LucR virus (HIV-1 clade B)
[5] = target: T5, HIV-1 AC10.0.29 envelope (Env) on Env.IMC.LucR virus (HIV-1 clade B)
[6] = target: T6, HIV-1 DU422.1 envelope (Env) on Env.IMC.LucR virus (HIV-1 clade C)
[7] = target: T7, HIV-1 CNE20 envelope (Env) on Env.IMC.LucR virus (HIV-1 clade BC)
[8] = target: T1, HIV-1 X1632_S2_B10 envelope (Env) on …; remark: listed apart in the source
[9] = target: T2, HIV-1 CAP45.2.00.G3 envelope (Env) on …; remark: listed apart in the source
[10] = target: HIV-1 WITO4160.33 envelope (Env) on Env.IMC.LucR virus (HIV-1 clade B)
[11] = target: T3, HIV-1 DU172.17 envelope (Env) on …; remark: listed apart in the source
[12] = target: T4, HIV-1 REJO4541.67 envelope (Env) on …; remark: listed apart in the source
[13] = target: T5, HIV-1 AC10.0.29 envelope (Env) on …; remark: listed apart in the source
[14] = target: T6, HIV-1 DU422.1 envelope (Env) on …; remark: listed apart in the source
[15] = target: T7, HIV-1 CNE20 envelope (Env) on …; remark: listed apart in the source
[16] = target: HIV-1 ZM233M.PB6 envelope (Env) on Env.IMC.LucR virus (HIV-1 clade C)
[17] = target: HIV-1 THRO4156.18 envelope (Env) on Env.IMC.LucR virus (HIV-1 clade B)
[18] = target: T3, HIV-1 DU172.17 envelope (Env) on …; remark: listed apart in the source

B1: NVS49-L1A2 (antibody, V domains shown)
VH: ADLVQSGAVVKKPGDSVRISCEAQGYRFPDYIIHWIRRAPGQGPEWMGWMNPMGGQVNIPWKFQGRVSMTRDTSIETAFLDLRGLKSDDTAVYYCVRDRSNGSGKRFESSNWFLDLWGRGTAVTIQS
VL: QSALTQPRSVSASPGQSVTISCTGTHNLVSWCQHQPGRAPKLLIYDFNKRPSGVPDRFSGSGSGGTASLTITGLQDDDDAEYFCWAYEAFGGGTKLTVL
IC50 of virus neutralization (TZM-BL, luciferase); L1A2 lot CRO #1, 293 cells [1]: > 50 µg/mL | IC50 of virus neutralization (TZM-BL, luciferase); L1A2 lot CRO #2, 293 cells [1]: > 50 µg/mL | IC50 of virus neutralization (TZM-BL, luciferase); L1A2 lot CRO #2, CHO cells [1]: > 50 µg/mL | IC50 of virus neutralization (TZM-BL, luciferase); L1A2 lot CRO #1, 293 cells [2]: 0.132 µg/mL | IC50 of virus neutralization (TZM-BL, luciferase); L1A2 lot CRO #2, 293 cells [2]: 0.209 µg/mL | IC50 of virus neutralization (TZM-BL, luciferase); L1A2 lot CRO #2, CHO cells [2]: 0.162 µg/mL | IC50 of virus neutralization (TZM-BL, luciferase); L1A2 lot CRO #1, 293 cells [3]: 0.268 µg/mL | IC50 of virus neutralization (TZM-BL, luciferase); L1A2 lot CRO #2, 293 cells [3]: 0.279 µg/mL | IC50 of virus neutralization (TZM-BL, luciferase); L1A2 lot CRO #2, CHO cells [3]: 0.507 µg/mL | IC50 of virus neutralization (TZM-BL, luciferase); L1A2 lot CRO #1, 293 cells [4]: 0.054 µg/mL | IC50 of virus neutralization (TZM-BL, luciferase); L1A2 lot CRO #2, 293 cells [4]: 0.072 µg/mL | IC50 of virus neutralization (TZM-BL, luciferase); L1A2 lot CRO #2, CHO cells [4]: 0.045 µg/mL | IC50 of virus neutralization (TZM-BL, luciferase); L1A2 lot CRO #1, 293 cells [5]: > 50 µg/mL | IC50 of virus neutralization (TZM-BL, luciferase); L1A2 lot CRO #2, 293 cells [5]: > 50 µg/mL | IC50 of virus neutralization (TZM-BL, luciferase); L1A2 lot CRO #2, CHO cells [5]: > 50 µg/mL | IC50 of virus neutralization (TZM-BL, luciferase); L1A2 lot CRO #1, 293 cells [6]: > 50 µg/mL | IC50 of virus neutralization (TZM-BL, luciferase); L1A2 lot CRO #2, 293 cells [6]: > 50 µg/mL | IC50 of virus neutralization (TZM-BL, luciferase); L1A2 lot CRO #2, CHO cells [6]: > 50 µg/mL | IC50 of virus neutralization (TZM-BL, luciferase); L1A2 lot CRO #1, 293 cells [7]: 0.089 µg/mL | IC50 of virus neutralization (TZM-BL, luciferase); L1A2 lot CRO #2, 293 cells [7]: 0.124 µg/mL | IC50 of virus neutralization (TZM-BL, luciferase); L1A2 lot CRO #2, CHO cells [7]: 0.092 µg/mL | IC50 of virus neutralization (TZM-BL, luciferase) [8]: > 50 µg/mL | IC50 of virus neutralization (TZM-BL, luciferase) [9]: 0.209 µg/mL | IC50 of virus neutralization (TZM-BL, luciferase) [10]: 0.2 µg/mL | IC50 of virus neutralization (TZM-BL, luciferase) [11]: 0.279 µg/mL | IC50 of virus neutralization (TZM-BL, luciferase) [12]: 0.072 µg/mL | IC50 of virus neutralization (TZM-BL, luciferase) [13]: > 50 µg/mL | IC50 of virus neutralization (TZM-BL, luciferase) [14]: > 50 µg/mL | IC50 of virus neutralization (TZM-BL, luciferase) [15]: 0.124 µg/mL | IC50 of virus neutralization (TZM-BL, luciferase) [16]: 0.613 µg/mL | IC50 of virus neutralization (TZM-BL, luciferase) [17]: 1.04 µg/mL

B2: Germ12_NglycoSA_CysCV (antibody, V domains shown)
VH: QVDLVQSGAVVKKPGDSVRVSCEAQGYRFPDYIIHWIRRAPGQGPEWMGWMNPMGGQVNIPWKFQGRVSMTRDTSIETAYMDLRGLRSDDTAVYYCVRDRSNGAGKRFESSNWFLDLWGRGTLVTVSS
VL: B1 VL with A12G, C32V, T72S, D77E
IC50 of virus neutralization (TZM-BL, luciferase) [8]: > 50 µg/mL | IC50 of virus neutralization (TZM-BL, luciferase) [9]: 0.047 µg/mL | IC50 of virus neutralization (TZM-BL, luciferase) [10]: 0.488 µg/mL | IC50 of virus neutralization (TZM-BL, luciferase) [11]: 0.714 µg/mL | IC50 of virus neutralization (TZM-BL, luciferase) [12]: ≤ 0.02 µg/mL | IC50 of virus neutralization (TZM-BL, luciferase) [13]: > 50 µg/mL | IC50 of virus neutralization (TZM-BL, luciferase) [14]: > 50 µg/mL | IC50 of virus neutralization (TZM-BL, luciferase) [15]: 0.059 µg/mL | IC50 of virus neutralization (TZM-BL, luciferase) [16]: 0.731 µg/mL | IC50 of virus neutralization (TZM-BL, luciferase) [17]: 11.7 µg/mL

B3: NglycoND (antibody, V domains shown)
VH: B1 VH with N101D
VL: B1 VL
IC50 of virus neutralization (TZM-BL, luciferase) [8]: > 50 µg/mL | IC50 of virus neutralization (TZM-BL, luciferase) [9]: 0.077 µg/mL | IC50 of virus neutralization (TZM-BL, luciferase) [11]: 18.3 µg/mL | IC50 of virus neutralization (TZM-BL, luciferase) [12]: 0.062 µg/mL | IC50 of virus neutralization (TZM-BL, luciferase) [13]: > 50 µg/mL | IC50 of virus neutralization (TZM-BL, luciferase) [14]: > 50 µg/mL | IC50 of virus neutralization (TZM-BL, luciferase) [15]: > 50 µg/mL | fold increase in neutralization IC50 as compared to parent mAb L1A2 [18]: ~65 fold
